Measured values taken from article PMC6077193, “Intravascular Schistosoma mansoni Cleave the Host Immune and Hemostatic Signaling Molecule Sphingosine-1-Phosphate via Tegumental Alkaline Phosphatase” (Frontiers in Immunology, 2018).

How the values were obtained:
Experiment in all cases: purified protein
[1] = test system: Nc1nc2c(ncn2[C@@H]2O[C@H](COP(=O)(O)O)[C@@H](O)[C@H]2O)c(=O)[nH]1; conditions: 50 mM Tris-HCl pH 9, 5 mM KCl, 135 mM NaCl, 10 mM glucose, 10 mM MgCl2, 0-2 mM substrate
[2] = test system: Cc1cn([C@H]2C[C@H](O)[C@@H](COP(=O)(O)O)O2)c(=O)[nH]c1=O; conditions: 50 mM Tris-HCl pH 9, 5 mM KCl, 135 mM NaCl, 10 mM glucose, 10 mM MgCl2, 0-2 mM substrate
[3] = test system: Nc1ccn([C@@H]2O[C@H](COP(=O)(O)O)[C@@H](O)[C@H]2O)c(=O)n1; conditions: 50 mM Tris-HCl pH 9, 5 mM KCl, 135 mM NaCl, 10 mM glucose, 10 mM MgCl2, 0-2 mM substrate
[4] = test system: Nc1ncnc2c1ncn2[C@@H]1O[C@H](COP(=O)(O)O)[C@@H](O)[C@H]1O; conditions: 50 mM Tris-HCl pH 9, 5 mM KCl, 135 mM NaCl, 10 mM glucose, 10 mM MgCl2, 0-2 mM substrate
[5] = test system: O=[N+]([O-])c1ccc(OP(=O)(O)O)cc1; conditions: 50 mM Tris-HCl pH 9, 5 mM KCl, 135 mM NaCl, 10 mM glucose, 10 mM MgCl2

“rSmAP (recombinant Schistosoma mansoni alkaline phosphatase) (Schistosoma mansoni)” showed a Km [1] of 640 ± 11 µM, a Km [2] of 595 µM and a Km [3] of 630 ± 20 µM. The Km [4] was 650 µM and the Km [5] was 288 ± 12 µM.
